Test [1] has as its target His-tagged ectodomain of human transferrin receptor 1 (hTfR1, R121-F760) (human) (UniProt P02786). Nature of the test: SPR; binder on protein A chip, hTfR1 as analyte, without hTf. In general terms: SPR reads the build-up and loss of mass on a sensor chip optically.
Test [2] shares this target. Nature of the test: SPR Biacore T200 single-cycle; hTfR1 captured on amine-coupled hTf, binder as analyte; 1:1 model.
Test [3] shares this target. Nature of the test: SPR; binder on protein A chip, hTfR1 as analyte, in presence of 250 nM hTf.

This note sets out measurements from patent US20260116990A1.

Chain of His-tagged ectodomain of human transferrin receptor 1 (hTfR1, R121-F760) (human) (P02786 other isoform, or with tags, fused parts or gaps limits assumed): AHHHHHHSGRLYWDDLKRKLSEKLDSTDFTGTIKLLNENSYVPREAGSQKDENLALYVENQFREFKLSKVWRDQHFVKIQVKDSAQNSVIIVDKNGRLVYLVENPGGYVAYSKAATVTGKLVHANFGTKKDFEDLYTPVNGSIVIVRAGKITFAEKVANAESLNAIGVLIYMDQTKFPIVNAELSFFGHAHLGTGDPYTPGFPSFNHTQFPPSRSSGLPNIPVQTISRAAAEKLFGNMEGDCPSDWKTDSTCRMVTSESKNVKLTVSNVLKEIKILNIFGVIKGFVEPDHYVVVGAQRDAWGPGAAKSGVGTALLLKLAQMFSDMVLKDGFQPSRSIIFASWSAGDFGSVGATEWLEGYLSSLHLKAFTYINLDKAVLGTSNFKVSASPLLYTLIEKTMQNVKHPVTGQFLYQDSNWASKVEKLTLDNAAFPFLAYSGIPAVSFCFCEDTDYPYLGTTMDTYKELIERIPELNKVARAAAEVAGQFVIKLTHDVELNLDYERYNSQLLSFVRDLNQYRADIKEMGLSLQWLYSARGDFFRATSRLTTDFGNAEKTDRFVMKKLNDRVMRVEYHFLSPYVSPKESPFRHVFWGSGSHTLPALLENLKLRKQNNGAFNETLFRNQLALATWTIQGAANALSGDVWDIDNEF

In test [1], “Benchmark antibody 128.1 (BA1), full length human IgG1” yielded a Kd of 101 pM, a koff of 8.87e-05 s⁻¹ and a kon of 882000 M⁻¹ s⁻¹. In test [2], this substance came in with a Kd of 19.9 pM, a koff of 5.63e-05 s⁻¹ and a kon of 2.82e+06 M⁻¹ s⁻¹. Moreover, in test [3], the Kd turned out to be 83.4 pM, the koff came to 5.77e-05 s⁻¹ and the kon was determined as 692000 M⁻¹ s⁻¹.

The term Kd denotes the equilibrium constant for the complex coming apart. The term koff denotes the rate constant with which the complex falls apart. As a reminder, the kon is the second-order rate constant of association.
